These results are taken from article PMC11944484, “Metronidazole Activation by a Deeply Entangled Dimeric Malic Enzyme in Entamoeba histolytica” (Pathogens, 2025).

The target in series [1] is T1, EhME (Entamoeba histolytica malic enzyme; rEhME) (Entamoeba histolytica, UniProt Q9NH04).
T1 construct: gene CL6EHI_044970; full-length ORF in pQE30, N-terminal His6 tag (cleavage not mentioned), expressed in E. coli M15; Ni-NTA and Superdex 200; apparent 53 kDa; entangled homodimer with composite active site
T1 sequence (Q9NH04 1-487): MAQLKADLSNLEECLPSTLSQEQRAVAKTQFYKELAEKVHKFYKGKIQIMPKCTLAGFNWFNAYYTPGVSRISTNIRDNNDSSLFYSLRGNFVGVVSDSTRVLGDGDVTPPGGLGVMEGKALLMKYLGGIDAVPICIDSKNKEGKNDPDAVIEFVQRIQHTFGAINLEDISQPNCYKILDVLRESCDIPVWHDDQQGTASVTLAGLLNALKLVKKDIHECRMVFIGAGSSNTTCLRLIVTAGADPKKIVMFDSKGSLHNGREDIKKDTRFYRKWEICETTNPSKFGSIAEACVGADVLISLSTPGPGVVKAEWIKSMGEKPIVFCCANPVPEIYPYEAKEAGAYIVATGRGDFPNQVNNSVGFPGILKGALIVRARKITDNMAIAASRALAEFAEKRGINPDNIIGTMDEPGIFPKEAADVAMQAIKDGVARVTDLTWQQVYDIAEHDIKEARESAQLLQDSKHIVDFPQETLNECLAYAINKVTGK
Description: NADPH formation at […] nm, inhibition kinetics. It counts as biochemical.

Substrate in series [2]: NC(=O)c1ccc[n+]([C@@H]2O[C@H](COP(=O)(O)OP(=O)(O)OC[C@H]3O[C@@H](n4cnc5c(N)ncnc54)[C@H](OP(=O)(O)O)[C@@H]3O)[C@@H](O)[C@H]2O)c1
Description: purified protein. The class given is biochemical, Entamoeba histolytica. The note with it: L-malate at saturation, NADP+ varied 0.1-0.5 mM, 5 mM MnCl2, 50 mM Tris-Cl pH 7.4, 30 °C, apparent Km, varied: cofactor.

Substrate in series [3]: O=C(O)C[C@H](O)C(=O)O
Briefly: purified protein. The class given is biochemical, Entamoeba histolytica. Conditions: NADP+ at saturation, L-malate varied 5-15 mM, 5 mM MnCl2, 50 mM Tris-Cl pH 7.4, 30 °C, apparent Km.

Series [4] concerns the molecule itself. Description: SEC; gel filtration chromatography of purified EhME; conditions of the analysis not told apart from the purification step (Superdex 200, 10 mM Tris, 150 mM NaCl, 10 mM DTT, pH 8.0). For orientation: In gel filtration, larger molecules generally elute earlier.

By Ki is commonly meant a dissociation constant, usually derived from enzyme kinetics or from competition with a known ligand. Higher therefore signals lower affinity. As to `Nc1ncnc2c1ncn2[C@@H]1O[C@H](COP(=O)(O)OP(=O)(O)OP(=O)(O)O)[C@@H](O)[C@H]1O` [ATP], the affinity in series [1], expressed as Ki, was 650 µM.

B1: Entamoeba histolytica malic enzyme (enzyme, UniProt Q9NH04 1-487, looked up)
chain: T1 sequence (Q9NH04 1-487)
notes: Entamoeba histolytica malic enzyme, gene PCR-amplified from genomic DNA with primers from the ATG start codon to the stop codon; cloned into pQE30; Homodimer with two interlocked (knotted) protomers; also called EhME; rEhME; source: E. coli M15 (pQE30), purified (Ni-NTA, Superdex 200 gel exclusion chromatography)
What is called Km is the concentration of substrate that gives half-maximal velocity. By kcat is commonly meant the number of substrate molecules converted per active site and unit of time at saturation. One may read the stoichiometry N as a count of units in the complex or per binding partner. Turning to B1, the figures for the Km in “purified protein [2]” and in the series “purified protein [3]” were 46.67 ± 6.0 µM and 570 ± 80 µM, respectively. Further, the kcat in “purified protein [2]” turned out to be 14.57 s⁻¹; in “purified protein [3]”, 41.7 s⁻¹. Also, in series [4], the “stoichiometry N” value came to 2.
